Laboratory results published in publication PMC9113893, “Carbon Material Hybrid Construction on an Aptasensor for Monitoring Surgical Tumors”.

Molecular target: carcinoembryonic antigen (CEA) (human, UniProt P06731 35-685)
Assay: electrochemical aptasensor (interdigitated electrode, sandwich); immobilized aptamer; 0.5-1000 ng/mL CEA in PBS, or spiked in 1:100 human serum; LOD 0.5 ng/mL (not a Kd); PBS or 1:100 diluted human serum; graphene-modified IDE blocked with 1% BSA; pH, salt and temperature not stated
Conditions: protein: commercial

carcinoembryonic antigen (CEA), sequence (P06731 35-685): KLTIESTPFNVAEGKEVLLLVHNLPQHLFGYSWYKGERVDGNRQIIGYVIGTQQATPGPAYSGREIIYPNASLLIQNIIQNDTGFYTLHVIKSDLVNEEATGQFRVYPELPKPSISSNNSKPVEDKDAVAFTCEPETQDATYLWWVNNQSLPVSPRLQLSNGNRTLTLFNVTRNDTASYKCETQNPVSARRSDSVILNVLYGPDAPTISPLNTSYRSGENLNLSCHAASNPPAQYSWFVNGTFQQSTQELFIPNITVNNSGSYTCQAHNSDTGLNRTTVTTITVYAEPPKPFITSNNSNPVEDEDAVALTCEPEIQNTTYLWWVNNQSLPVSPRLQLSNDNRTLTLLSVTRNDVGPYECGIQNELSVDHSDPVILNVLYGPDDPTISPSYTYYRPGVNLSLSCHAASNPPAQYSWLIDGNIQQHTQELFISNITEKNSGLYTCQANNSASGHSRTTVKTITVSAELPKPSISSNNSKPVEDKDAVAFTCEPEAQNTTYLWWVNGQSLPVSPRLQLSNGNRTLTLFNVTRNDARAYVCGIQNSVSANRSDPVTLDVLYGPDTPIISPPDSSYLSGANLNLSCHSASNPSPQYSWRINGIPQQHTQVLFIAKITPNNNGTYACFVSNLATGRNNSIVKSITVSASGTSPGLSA

## TATCCAGCTTATTCAATT (ssDNA, 3'-NH2) [anti-CEA capture aptamer]
  binding result: binds
